In US20190100518A1 (priority 2016, published 2019):

Assays:
[1] = target: T1, lysozyme (Gallus gallus, UniProt P00698); test: circular dichroism (CD) spectrum, higher-order structure of lysozyme; assay type: physicochemical; conditions: 25° C.
T1 construct: purchased Sigma-Aldrich L-4919
Procedure: A keto-ABNO-lysozyme conjugate prepared by the same method as in Example 6 was dissolved in water, and the concentration was adjusted to 20 μM to provide an aqueous solution for a test group. On the other hand, lysozyme alone was dissolved in water, and the concentration was adjusted to 20 μM to provide an aqueous solution for a control group.
Using a circular dichroism (CD) dispersion meter Model 202SF (manufactured by AVIV Biomedical, Inc.), the CD spectrum of the aqueous solution in each of the test group and the control group was measured under the following conditions to perform analysis of the higher-order structure of the lysozyme in each aqueous solution.
On the other hand, control group A was prepared in the same manner as in the method described in Example 6 except that the same amount of water was added instead of the aqueous NaNO2 solution. As control group B, lysozyme alone (20 μM) was used. As control group C, a phenylmaleimide-lysozyme conjugate prepared by the method described in Example 15 was used.
Using a circular dichroism (CD) dispersion meter Model 202SF (manufactured by AVIV Biomedical, Inc.), the CD spectrum was measured for each of the test group and the control groups under the following conditions.

[2] = assay type: physicochemical
[3] = Example 16: 200 to 250 nm, compared with control groups A and B, FIG. 7

T1 sequence (P00698 19-147): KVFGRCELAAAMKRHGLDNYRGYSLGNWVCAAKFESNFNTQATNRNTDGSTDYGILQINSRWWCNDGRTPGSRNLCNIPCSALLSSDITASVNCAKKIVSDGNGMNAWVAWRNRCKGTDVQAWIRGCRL

keto-ABNO-lysozyme conjugate: lysozyme bound to keto-ABNO at a tryptophan residue, prepared in water with NaNO2 and AcOH
higher-order structure of lysozyme (waveform of the CD spectrum) ([1]; Example 14: 20 μM in water, 200 to 250 nm, compared with lysozyme alone, FIG. 5): not influenced | higher-order structure of lysozyme (waveform of the CD spectrum) [1, 3]: maintained

[O]N1C2CCCC1CC(=O)C2 [keto-ABNO, keto-azabicyclo[3.3.1]nonane N-oxyl]
solubility in water [2]: dissolve in water

phenylmaleimide-lysozyme conjugate: lysozyme bound to phenylmaleimide through a cysteine residue, cysteine modification method comparison [reference compound]
higher-order structure of lysozyme (waveform of the CD spectrum) [1, 3]: has changed
